Assay results reported in the supplement of paper PMC10201428.
± gives the standard deviation of the averaged measurements.

Assays:
[1] = system: VchCAST RNA-guided transposition machinery (E. coli BL21(DE3) host, lacZ target); assay: relative integration efficiency (T-LR orientation) vs wild-type transposon end (log2 (normalized fold change)); transposon end mutated: left end; higher = more efficient transposition
Method: (§1)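 Pooled, barcoded VchCAST (Tn6677) mini-transposon donor libraries; each variable transposon-end sequence sits in a fixed pDonor mini-transposon context (10-bp barcode and cargo not included). Left- or right-end libraries were co-transformed with pEffector (TniQ-Cascade, TnsABC, lacZ crRNA, T7, 0.1 mM IPTG) into E. coli BL21(DE3) and grown 18 h at 37 C. T-LR and T-RL junction amplicons were sequenced; output/input barcode fold change was normalised to the mean of four wild-type barcodes and log2-transformed. Two biological replicates; zero-count/undetected variants carry floor values (-10 / -15), censored here. Barcode uncoupling by PCR recombination adds noise.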

[2] = system: VchCAST RNA-guided transposition machinery (E. coli BL21(DE3) host, lacZ target); assay: relative integration efficiency (T-RL orientation) vs wild-type transposon end (log2 (normalized fold change)); transposon end mutated: left end; higher = more efficient transposition
Method: as §1

Sequence	relative integration efficiency (log2) [1]	relative integration efficiency (log2) [2]
AATGTTGTTGATGACCAACGCCCTGTCGCGGGCCGCCGGCGGGCGCCGACTACCAGGCCAACACCCCACCAACGCGCGGTCGCGAGACACCCCACCAACGCCTGGTCGCGGGGGTGTCCGATCTGATTTCAGCAAAACTACTGCAGTAAGAA	< -10	
AATGTTGTTGATGACCAACGCCTGGTCGCGGGGATAATTATTTATAATCAGCAACTTAACCACAAAACAACCATATATTGATATCTCACAAAAACCAACGCCCTGTCGCGGGCTGTGAATCGAGTATTTCAGCAAAACTACTGCAGTAAGAA	< -10	
AATGTTGTTGATGCAACCAGCCCTTGATATTTAATAATTATTTATAATCAGCAACTTAACCACAAAACAACCAGCGCGTGATATCTCACAAAACAACCAGCCTGTGATATTTTTGTGAATCGAGTATTTCAGCAAAACTACTGCAGTAAGAA	< -10	
AATGTTGTTGATGCAACCATAAAGTGATATTTAATAATTATTCAACCATATATTGATATCTCACAAAACAACCATAAGTTGATATTTTTGTGAATCGAGTATTTCAGCAAAACTACTGCAGTAAGAAAGTTACTTCGTGGTATGGGAGGATC	-5.27 ± 0.11	
AATGTTGTTGATGCAACCATAAAGTGATATTTAATAATTATTTATAATCAGCACAACCATATATTGATATCTCACAAAACAACCATAAGTTGATATTTTTGTGAATCGAGTATTTCAGCAAAACTACTGCAGTAAGAAAGTTACTTCGTGGT	-4.94 ± 0.63	
AATGTTGTTGATGCAACCATAAAGTGATATTTAATAATTATTTATAATCAGCCAACCATATATTGATATCTCAACTTAACCACAAAAACAAAACAACCATAAGTTGATATTTTTGTGAATCGAGTATTTCAGCAAAACTACTGCAGTAAGAA		-7.27 ± 2.4
AATGTTGTTGATGCAACCATAAAGTGATATTTAATAATTATTTATAATCAGCCAACCATATATTGATATCTCACAAAACAACCATAAGTTGATATTTTAACTTAACCACAAAATGTGAATCGAGTATTTCAGCAAAACTACTGCAGTAAGAA		-6.91 ± 2.5
AATGTTGTTGATGCAACCATAAAGTGATATTTAATAATTATTTATAATCATACCAGGCCAACACCCCACCAACGCGCGGTCGCGAGACACCCCACCAACGCCTGGTCGCGGGGGTGTCCGATCTGATTTCAGCAAAACTACTGCAGTAAGAA		-6.02 ± 1.1
AATGTTGTTGATGCAACCATAAAGTGATATTTAATAATTATTTATAATCATTGTGAGCGGATAACAACAACCATATATTGATATCTCACAAAACAACCATAAGTTGATATTTTTGTGAATCGAGTATTTCAGCAAAACTACTGCAGTAAGAA		-3.2 ± 0.53
AATGTTGTTGATGCAACCATAAAGTGATATTTAATAATTATTTATAATCCAACCATATATTGATATCTCACAAAACAACCATAAGTTGATATTTTTGTGAATCGAGTATTTCAGCAAAACTACTGCAGTAAGAAAGTTACTTCGTGGTATGG		-6.76 ± 0.87
AATGTTGTTGATGCAACCATAAAGTGATATTTAATAATTATTTATAATCCAACCATATATTGATATCTCAGCAACTTAACCACAAAAACAAAACAACCATAAGTTGATATTTTTGTGAATCGAGTATTTCAGCAAAACTACTGCAGTAAGAA		-5.59 ± 1.3
AATGTTGTTGATGCAACCATAAAGTGATATTTAATAATTATTTATACAACCATATATTGATATCTCACAAAACAACCATAAGTTGATATTTTTGTGAATCGAGTATTTCAGCAAAACTACTGCAGTAAGAAAGTTACTTCGTGGTATGGGAG		-6.01 ± 0.81
AATGTTGTTGATGCAACCATAAAGTGATATTTAATAATTATTTATCCGACTACCAGGCCAACACCCCACCAACGCGCGGTCGCGAGACACCCCACCAACGCCTGGTCGCGGGGGTGTCCGATCTGATTTCAGCAAAACTACTGCAGTAAGAA		-6.94 ± 1.3
AATGTTGTTGATGCAACCATAAAGTGATATTTAATAATTATTTCAACCATAAAGTGATATTTAACTTCAACCATATATTGATATCTCACAAAACAACCATAAGTTGATATTTTTGTGAATCGAGTATTTCAGCAAAACTACTGCAGTAAGAA		-6.43 ± 0.89
AATGTTGTTGATGCAACCATAAAGTGATATTTAATAATTATTTCAACCATATATTGATATCTCATAATCAGCAACTTAACCACAAAAACAAAACAACCATAAGTTGATATTTTTGTGAATCGAGTATTTCAGCAAAACTACTGCAGTAAGAA		-5.79 ± 0.8
AATGTTGTTGATGCAACCATAAAGTGATATTTAATAATTCAACCATAAAGTGATATTTAACTTAACCCAACCATATATTGATATCTCACAAAACAACCATAAGTTGATATTTTTGTGAATCGAGTATTTCAGCAAAACTACTGCAGTAAGAA		-4.15 ± 0.95
AATGTTGTTGATGCAACCATAAAGTGATATTTAATAATTCGGGCGCCGACTACCAGGCCAACACCCCACCAACGCGCGGTCGCGAGACACCCCACCAACGCCTGGTCGCGGGGGTGTCCGATCTGATTTCAGCAAAACTACTGCAGTAAGAA		-7.09 ± 1

Sequence	relative integration efficiency (log2) [1]	relative integration efficiency (log2) [2]
AATGTTGTTGATGCAACCATAAAGTGATATTTATACCGTTCGTATACGATACATTATACGAAGTTATCAACCATATATTGATATCTCACAAAACAACCATAAGTTGATATTTTTGTGAATCGAGTATTTCAGCAAAACTACTGCAGTAAGAA		-4.08 ± 1.3
AATGTTGTTGATGCAACCATAAAGTGATATTTATATTAATAAATATTAGTCGTTGAATTGGTGTTTTCAACCATATATTGATATCTCACAAAACAACCATAAGTTGATATTTTTGTGAATCGAGTATTTCAGCAAAACTACTGCAGTAAGAA		-3.31 ± 1.4
AATGTTGTTGATGCAACCATAAAGTGATATTTATATTCTAAATGTTGATTAATTTGAATCATCATCTCAACCATATATTGATATCTCACAAAACAACCATAAGTTGATATTTTTGTGAATCGAGTATTTCAGCAAAACTACTGCAGTAAGAA		-5.04 ± 1
AATGTTGTTGATGCAACCATAAAGTGATATTTATTGACAGCTAGCTCAGTCCTAGGTATAATGCTAGCAACCATATATTGATATCTCACAAAACAACCATAAGTTGATATTTTTGTGAATCGAGTATTTCAGCAAAACTACTGCAGTAAGAA		-8.14 ± 0.72
AATGTTGTTGATGCAACCATAAAGTGATATTTATTGACGGCTAGCTCAGTCCTAGGTATAGTGCTAGCAACCATATATTGATATCTCACAAAACAACCATAAGTTGATATTTTTGTGAATCGAGTATTTCAGCAAAACTACTGCAGTAAGAA		-6.66 ± 0.33
AATGTTGTTGATGCAACCATAAAGTGATATTTGCTAGCATTATACCTAGGACTGAGCTAGCTGTCAACAACCATATATTGATATCTCACAAAACAACCATAAGTTGATATTTTTGTGAATCGAGTATTTCAGCAAAACTACTGCAGTAAGAA	< -10	
AATGTTGTTGATGCAACCATAAAGTGCGCGGGCATAATTATTTATAATCAGCAACTTAACCACAAAACAACCATATATTGCGCGAGAACAAAACAACCATAAGTTGCGCGGGGTGTGAATCGAGTATTTCAGCAAAACTACTGCAGTAAGAA		-7.87 ± 2.2
AATGTTGTTGATGCAACCATAAAGTGCGCGGGCCGCCGGCGGGCGCCGACTACCAGGCCAACACCCCACCAACGCGCGGTCGCGAGACACCCCACCAACGCCTGGTCGCGGGGGTGTCCGATCTGATTTCAGCAAAACTACTGCAGTAAGAA	< -10	
AATGTTGTTGATGCAACCATAAAGTTCGCGGGCCGCCGGCGGGCGCCGACTACCAGGCCAACACCCCACCAACGCGCGGTCGCGAGACACCCCACCAACGCCTGGTCGCGGGGGTGTCCGATCTGATTTCAGCAAAACTACTGCAGTAAGAA	< -10	
AATGTTGTTGATGCAACCATAAATGTCGCGGGCCGCCGGCGGGCGCCGACTACCAGGCCAACACCCCACCAACGCGCGGTCGCGAGACACCCCACCAACGCCTGGTCGCGGGGGTGTCCGATCTGATTTCAGCAAAACTACTGCAGTAAGAA	< -10	
AATGTTGTTGATGCAACCATACCTGTATATTTAATAATTATTTATAATCAGCAACTTAACCACAAAACAACCATAGCGGTATATCTCACAAAACAACCATACTGGTATATTTTTGTGAATCGAGTATTTCAGCAAAACTACTGCAGTAAGAA	< -10	
AATGTTGTTGATGCACAACGCCCTGTCGCGGGCCGCCGGCGGGCGCCGACTACCAGGCCAACACCCCACCAACGCGCGGTCGCGAGACACCCCACCAACGCCTGGTCGCGGGGGTGTCCGATCTGATTTCAGCAAAACTACTGCAGTAAGAA	< -10	
AATGTTGTTGATGGTTGGTATTTCACTATAAATATAATTATTTATAATCAGCAACTTAACCACAAAACAACCATATATTGATATCTCACAAAACAACCATAAGTTGATATTTTTGTGAATCGAGTATTTCAGCAAAACTACTGCAGTAAGAA		-6.55 ± 1.7
AATGTTGTTGATGGTTGGTATTTCACTATAAATATAATTATTTATAATCAGCAACTTAACCACAAAACAACCATATATTGATATCTCACAAAAGTTGGTATTCAACTATAAAATGTGAATCGAGTATTTCAGCAAAACTACTGCAGTAAGAA		-8.45 ± 0.29
AATGTTGTTGATGGTTGGTATTTCACTATAAATATAATTATTTATAATCAGCAACTTAACCACAAAAGTTGGTATATAACTATAGAGACAAAACAACCATAAGTTGATATTTTTGTGAATCGAGTATTTCAGCAAAACTACTGCAGTAAGAA		-8.28 ± 1.3
AATGTTGTTGATGTGTTGACAACCATAAAGTGATATTTAATAATTATTTATAATCAGCAACTTAACCACAAAACAACCATATATTGATATCTCACAAAACAACCATAAGTTGATATTTTTGTGAATCGAGTATTTCAGCAAAACTACTGCAG		-2.23 ± 0.63
AATGTTGTTGATGTGTTGATCAACCATAAAGTGATATTTAATAATTATTTATAATCAGCAACTTAACCACAAAACAACCATATATTGATATCTCACAAAACAACCATAAGTTGATATTTTTGTGAATCGAGTATTTCAGCAAAACTACTGCA		-4.39 ± 0.52
